Where “and” joins values, the source holds several entries; their conditions need not be identical. Equal values may be shown once. Entries after “also recorded” stand apart in the source; their conditions may differ.
Assay: Phase 1 (1a/1b) pharmacokinetics: plasma concentrations after single IV dose (validated direct fluorescence reader assay), noncompartmental analysis
Type: in vivo, human
Conditions: for AUC0-24 hr / AUCall / AUClast / C10 m / Cmax / T1/2 / Tmax: 1.2 mg/kg single IV; for Plasma Conc: 1.20 mg/kg
Source text: Phase 1 is a single-Principal Investigator, non-randomized, open-label, single-arm, cross-sectional study to evaluate the safety, PK profile, and imaging feasibility of Compound 1 in patients with solid cancers who require surgical excision. The main purpose of this study was to investigate the safety, PK, and feasibility of Compound 1 as an intra-operative optical imaging agent to detect tumors and metastatic lymph nodes in solid cancers. The study was intended to investigate the optimal dose range of Compound 1 for an adequate TBR and CNR of fluorescence obtained intraoperatively at 24 (±8) hours post dosing and with ex vivo specimens using ICG compatible cameras and imaging devices.
Phase 1 enrolled 30 patients with solid cancers (HNSCC, breast cancer, esophageal cancer, or colorectal cancer) who have a biopsy-confirmed diagnosis of respective tumor types and are scheduled to undergo surgical resection of the tumor. The study design included a standard 3+3 design for the dose-escalation portion (Phase 1a; N=18 maximum) followed by a dose-expansion portion (Phase 1b; N=15). All patients received a single I.V. dose of Compound 1, followed by routine surgery approximately 24 hours after infusion of Compound 1.
Phase 1a was a dose-finding study performed in 5 cohorts of 3 patients each. The dose levels evaluated were […], and 1.2 mg/kg, in this sequence. Inter-cohort dose escalation took place after the last patient in the previous cohort completed the Day 10 safety assessment. Safety, PK, and imaging feasibility were evaluated in both the Phase 1a and 1b portions of the study. Patient safety is assessed during the study and for up to 10 days post-dose.
Study design: Single Compound 1 IV dose was administered as a 1-5 minute IV infusion to patients in five cohorts (0.1, 0.3, 0.5, 0.8, and 1.2 mg/kg) with three patients per cohort in Phase 1a and 15 patients at a dose of 1.2 mg/kg in Phase 1b. Patient demographic information including tumor types is presented in Table 4 and 5 for Phase 1a and Table 5 for Phase 1b. Intertek Pharmaceutical Services (San Diego, Calif.) determined Compound 1 plasma concentrations using a validated direct fluorescence reader assay. Pacific BioDevelopment (Davis, Calif.) performed the PK analysis.
Sample collection: Blood samples were collected prior to infusion and at 10 minutes and 0.5, 1, 3, 8, 24, 48, 72, and 240 hours after infusion.
Analysis: Plasma concentration versus time profiles were generated for each patient. Pharmacokinetic parameters were estimated using Phoenix WinNonlin (version 8.0). According to SOP, concentrations reported as BQL were set to 0 except for the 0.5 h sample for subject #ON1102, which was set to LLOQ/2 ([…] value used in parameter calculations) and the 24 and 48 h samples.
If the coefficient of determination for the terminal slope estimation was less than 0.8, T1/2 was not reported (NR). AUC extrapolated to infinity is not reported for any data set because in all cases the % extrapolated AUC was greater than 20% and thus the AUCinf estimate would not be reliable. The concentration at 10 minutes, the first time point measured (C10m), was also reported for each patient.
The area under the plasma concentration versus time curves from dosing to the last time point with a measurable concentration (AUClast) was estimated by the linear trapezoid method. The last three or more time points were used to estimate the elimination rate constant (λz) which was used to estimate the terminal-phase half-life (T1/2) and AUC from zero to infinity (AUCINF) from the following equations: […]

Work on “PEO90-140-b-P(DBA60-150-r-ICG0-3-r-AMA0-3) [Compound 1]” yielded an AUC0-24 hr (Phase 1a, mean) of 495 µg·h/mL, an AUCall (Phase 1a, mean) of 842 µg·h/mL and an AUClast (Phase 1a, mean) of 682 µg·h/mL. It also gave a C10 m (Phase 1a, mean) of 31.7 µg/mL, a Cmax (Phase 1a, mean) of 31700 ng/mL and a T1/2 (Phase 1a, mean) of 36.5 h. For the same substance, the Tmax (Phase 1a, mean) was 0.170 h, the AUC0-24 hr (Phase 1a, median) was 563 µg·h/mL and the AUCall (Phase 1a, median) was 1020 µg·h/mL. It also gave an AUClast (Phase 1a, median) of 891 µg·h/mL, a C10 m (Phase 1a, median) of 33.0 µg/mL and a Cmax (Phase 1a, median) of 33000 ng/mL. For the same substance, the T1/2 (Phase 1a, median) was 32.5 h, the Tmax (Phase 1a, median) was 0.170 h and the “Plasma Conc” value (Phase 1a, 0.170 hr, individual subject) was 28000 ng/mL and 34100 ng/mL and 33000 ng/mL. The “Plasma Conc” value (Phase 1a, 0.170 hr, mean) was 31700 ng/mL, the “Plasma Conc” value (Phase 1a, 0.500 hr, individual subject) was 23900 ng/mL and 30500 ng/mL and 31800 ng/mL and the “Plasma Conc” value (Phase 1a, 0.500 hr, mean) was 28700 ng/mL. The “Plasma Conc” value (Phase 1a, 1.00 hr, individual subject) was 23900 ng/mL and 32100 ng/mL and 25800 ng/mL, the “Plasma Conc” value (Phase 1a, 1.00 hr, mean) was 27300 ng/mL and the “Plasma Conc” value (Phase 1a, 3.00 hr, individual subject) was 24500 ng/mL and 28400 ng/mL and 27800 ng/mL. For the same substance, the “Plasma Conc” value (Phase 1a, 3.00 hr, mean) was 26900 ng/mL, the “Plasma Conc” value (Phase 1a, 8.00 hr, individual subject) was 20500 ng/mL and 24400 ng/mL and 28400 ng/mL and the “Plasma Conc” value (Phase 1a, 8.00 hr, mean) was 24400 ng/mL. The “Plasma Conc” value (Phase 1a, 24.0 hr, individual subject) was “BQL (BQL (<10 μg/mL), set = 0 for PK analysis) and 18.3 μg/mL and 15.6 μg/mL”, the “Plasma Conc” value (Phase 1a, 24.0 hr, mean) was 11300 ng/mL and the “Plasma Conc” value (Phase 1a, 48.0 hr, individual subject) was “BQL (BQL (<10 μg/mL), set = 0 for PK analysis) and 15.6 μg/mL and 10.8 μg/mL”. For the same substance, the “Plasma Conc” value (Phase 1a, 48.0 hr, mean) was 8800 ng/mL, the “Plasma Conc” value (Phase 1a, 72.0 hr, individual subject) was “BQL (BQL (<10 μg/mL), set = 0 for PK analysis)” and the “Plasma Conc” value (Phase 1a, 72.0 hr, mean) was 0 ng/mL. The “Plasma Conc” value (Phase 1a, 240 hr, individual subject) was “BQL (BQL (<10 μg/mL), set = 0 for PK analysis)”, the “Plasma Conc” value (Phase 1a, 240 hr, mean) was 0 ng/mL and the “Exposure in relation to dose” value (Phase 1a, 0.1-1.2 mg/kg) was “dose-related; also recorded: increased proportionally with dose”. For the same substance, the Mean AUC0-24hr (Phase 1b, 1.2 mg/kg) was 638 µg·h/mL, the Mean terminal-phase half-life (Phase 1b, 1.2 mg/kg) was 46.4 h and the AUC0-24 hr (Phase 1b, individual subject) was 625 µg·h/mL and 606 µg·h/mL and 502 µg·h/mL and 787 µg·h/mL and 730 µg·h/mL and 585 µg·h/mL and 740 µg·h/mL and 630 µg·h/mL and 684 µg·h/mL and 626 µg·h/mL and 693 µg·h/mL and 562 µg·h/mL and 565 µg·h/mL and 520 µg·h/mL and 721 µg·h/mL. The AUCall (Phase 1b, individual subject) was 2690 µg·h/mL and 2150 µg·h/mL and 2120 µg·h/mL and 1460 µg·h/mL and 2550 µg·h/mL and 1100 µg·h/mL and 2740 µg·h/mL and 1170 µg·h/mL and 939 µg·h/mL and 1090 µg·h/mL and 3190 µg·h/mL and 1120 µg·h/mL and 747 µg·h/mL and 3350 µg·h/mL, the AUClast (Phase 1b, individual subject) was 1430 µg·h/mL and 1280 µg·h/mL and 1110 µg·h/mL and 1270 µg·h/mL and 1480 µg·h/mL and 961 µg·h/mL and 1580 µg·h/mL and 1020 µg·h/mL and 684 µg·h/mL and 971 µg·h/mL and 1740 µg·h/mL and 968 µg·h/mL and 957 µg·h/mL and 520 µg·h/mL and 1780 µg·h/mL and the C10 m (Phase 1b, individual subject) was 30.3 µg/mL and 31.4 µg/mL and 25.5 µg/mL and 40.0 µg/mL and 47.6 µg/mL and 32.6 µg/mL and 31.3 µg/mL and 36.5 µg/mL and 32.1 µg/mL and 35.8 µg/mL and 33.0 µg/mL and 28.0 µg/mL and 28.5 µg/mL and 27.5 µg/mL and 38.6 µg/mL. For the same substance, the Cmax (Phase 1b, individual subject) was 32400 ng/mL and 32600 ng/mL and 27600 ng/mL and 42200 ng/mL and 47600 ng/mL and 34300 ng/mL and 37700 ng/mL and 34100 ng/mL and 36400 ng/mL and 32000 ng/mL and 29900 ng/mL and 29200 ng/mL and 38600 ng/mL, the T1/2 (Phase 1b, individual subject) was 43.3 h and 61.4 h and 34.4 h and 38.4 h and 33.6 h and 46.8 h and 34.5 h and 33.4 h and 27.7 h and 83.0 h and 45.5 h and 42.6 h and 77.9 h and the Tmax (Phase 1b, individual subject) was 3.00 h and 1.00 h and 0.500 h and 0.170 h.
